Measurements as given in patent US20060015952A1, “Screening assays and methods of tumor treatment” (GENENTECH, INC., priority 2003, published 2006).

How the values were obtained:
[1] = test system: TGF-beta extracellular domain (ECD); test: Binding ELISA of chimeric and humanized 2G7 versions; details: for binding to TGF-beta of CDR mutants of hu2G7 Version 5 IgG: germline revertants / CDR H2 mutant
Experimental: DNA sequencing of the chimeric clone allowed identification of the CDR residues (Kabat et al., supra). Using oligonucleotide site-directed mutagenesis, all six of these CDR regions were introduced into a complete human framework (VL kappa subgroup I and VH subgroup III) contained on plasmid VX4 as previously described (Presta et al., Cancer Research, 57: 4593-4599 (1997)). Protein from the resultant “CDR-swap” was expressed and purified as above. Binding studies were performed to compare the two versions. Briefly, a NUNC MAXISORP™ plate was coated with 1 microgram per ml of TGF-beta extracellular domain (ECD; produced as described in WO 90/14357) in 50 mM of carbonate buffer, pH 9.6, overnight at 4° C., and then blocked with ELISA diluent (0.5% BSA, 0.05% POLYSORBATE™ 20, PBS) at room temperature for 1 hour. Serial dilutions of samples in ELISA diluent were incubated on the plates for 2 hours. After washing, bound Fab fragment was detected with biotinylated murine anti-human kappa antibody (ICN 634771) followed by streptavidin-conjugated horseradish peroxidase (Sigma) and using 3,3′,5,5′-tetramethyl benzidine (Kirkegaard & Perry Laboratories, Gaithersburg, Md.) as substrate. Absorbance was read at 450 nm.

TGF-beta1 through -beta3 = test: 3T3 cell proliferation assay, neutralization of TGF-betas; type: cell-based, mouse; details: 3T3 cells stimulated with one of three TGF-betas
Experimental: Various humanized antibodies were tested for their activity in neutralizing various TGF-betas versus 2G7 using the 3T3 cell line from fibroblasts of disaggregated Swiss mouse embryos stimulated with one of three TGF-betas in vitro and then their proliferation was measured as activity.

TGF-beta = test: Mouse messangial cell proliferation assay; type: cell-based; details: antibody 20 μg/ml; TGF-beta at 1 ng/ml level; 48 hours
Experimental: A mouse messangial cell proliferation assay was used to test a control antibody and several humanized antibodies (V5H.V5L, V5H.gIL2, H2NI.V5L, V5H.gIL1gIL2, and H2N1.gIL gIL2). The protocol is as follows:
On day 1: Mouse messangial cells were plated on a 96-well plate in Media (a 3:1 mixture of Dulbecco's modified Eagle's medium and Ham's F12 medium-95%-fetal bovine serum-5%-supplemented with 14 mM HEPES buffer) and grown overnight.
On day 2: TGF-beta with three different concentrations (100 ng, 10 ng and 1 ng) and five different types of humanized TGF antibody (20 μg/ml) were diluted in serum-free Media and added to the cells. A mouse TGF antibody was used as a control (2G7).
On day 4: After 48 hours incubation, 20 μl of reaction buffer (CELLTITER 96® AQUEOUS ONE SOLUTION REAGENT™ containing a tetrazolium compound 3-(4,5-dimethylthiazol-2-yl)-5-(3-carboxymethoxyphenyl)-2-(4-sulfophenyl)-2H-tetrazolium, inner salt, and an electron coupling reagent (phenazine ethosulfate) (Promega Inc. Cat number G3580)) was added to each well of the plate and allowed to incubate for 2 hours. The absorbance (OD) was measured at 490 nm.

B1: V5H.g1L2: Same as Version 5 except the CDR L2 is reverted to human germline kappa locus sequence YASSLQS (antibody, V domains shown)
VH: EVQLVESGGGLVQPGGSLRLSCAASGYAFTNYLIEWVRQAPGKGLEWVGVNNPGSGGSNYNEKFKGRATISADNSKNTLYLQMNSLRAEDTAVYYCARSGGFYFDYWGQGTLVTVSS
VL: DIQMTQSPSSLSASVGDRVTITCRASQSVLYSSNQKNYLAWYQQKPGKAPKLLIYYASSLQSGVPSRFSGSGSGTDFTLTISSLQPEDFATYYCHQYLSSDTFGQGTKVEIK
What does the source list for B1?
binding to TGF-beta of CDR mutants of hu2G7 Version 5 IgG [1]: bound to TGF-beta as well as V5H.V5L; activity in neutralizing TGF-betas versus 2G7 (TGF-beta1 through -beta3): comparable activity, with V5H.gIL2 being the least effective

B2: V5H.g1L1glL2: Same as Version 5 except CDR L1 and CDR L2 reverted to human germline kappa locus sequences (antibody, V domains shown)
VH: B1 VH
VL: DIQMTQSPSSLSASVGDRVTITCRASQGISSYLAWYQQKPGKAPKLLIYYASSLQSGVPSRFSGSGSGTDFTLTISSLQPEDFATYYCHQYLSSDTFGQGTKVEIK
With B2 as the molecule, how does the “binding to TGF-beta of CDR mutants of hu2G7 Version 5 IgG” value [1] read?
Its value is “did not bind as well as the chimera”.

B3: Version 5: humanized 2G7, ArgH71Ala, AlaH49Gly, PheH67Ala; SEQ ID Nos. 3 and 4 (antibody, V domains shown)
VL: DIQMTQSPSSLSASVGDRVTITCRASQSVLYSSNQKNYLAWYQQKPGKAPKLLIYWASTRESGVPSRFSGSGSGTDFTLTISSLQPEDFATYYCHQYLSSDTFGQGTKVEIKRTVA
VH: EVQLVESGGGLVQPGGSLRLSCAASGYAFTNYLIEWVRQAPGKGLEWVGVNNPGSGGSNYNEKFKGRATISADNSKNTLYLQMNSLRAEDTAVYYCARSGGFYFDYWGQGTLVTVSSASTKGPS
modifications: Sequence is synthesized
For B3, which “blocking of cell inhibition induced by TGF-beta” value (TGF-beta) is on record?
Its value is “blocked cell inhibition similarly to the control”.

What about the “binding to TGF-beta compared to chimeric 2G7 Fab fragment” value ([1]; humanized versions (FR mutants)) of the same molecule?
The value was “binding restored to that of the original chimeric 2G7 Fab fragment”.
